Patent US20220162261A1 (published 2022)
Bridge positions count the residues as written; N and C are the ends. Square brackets hold non-standard residues; d marks the D form. Ends that are not written are not given here. Phe(4-COOH) = N[C@@H](Cc1ccc(C(=O)O)cc1)C(=O)O; Phe(4-tBu) = CC(C)(C)c1ccc(C[C@H](N)C(=O)O)cc1; Phe(2-CONH2) = NC(=O)c1ccccc1C[C@H](N)C(=O)O; NMeR = CN[C@@H](CCCNC(=N)N)C(=O)O; Tic = O=C(O)[C@@H]1Cc2ccccc2CN1; β3hE = N[C@@H](CCC(=O)O)CC(=O)O; DIG = diglycolic acid (linker); Pen = CC(C)(S)[C@H](N)C(=O)O

B1: SEQ ID NO: 6 (peptide)
peptide: C[NMeR]SDTLCW-NH2
modifications: disulfide 1-7 (inferred); not fully specified (N-terminus); printed as DIG NH2 C N-Me-R S D T L C W NH2; also: N-terminal DIG linker, number of subunits not shown
notes: N-terminal linker printed without dimer brackets
B2: SEQ ID NO: 98 (peptide)
peptide: Ac-[Pen][NMeR]SDTL[Pen][Phe(2-CONH2)][dE][dK]-NH2
modifications: disulfide 1-7; not fully specified (residue 10); printed as (Ac Pen N-Me-R S D T L Pen F(2-carbamoyl) e k NH2)2 DIG, disulfide Pen-Pen; also: homodimer (…)2 DIG: the two subunits are joined through the K10 NZ by the DIG linker
B3: SEQ ID NO: 93 (peptide)
peptide: Ac-[Pen][NMeR]SDTLC[Tic][dE][dK](DIG)-NH2
modifications: disulfide 1-7; also: homodimer (…)2 DIG: the two subunits are joined through the K10 NZ by the DIG linker
B4: SEQ ID NO: 7 (peptide)
peptide: [Pen][NMeR]SDTL[Pen][dF]-NH2
modifications: disulfide 1-7; not fully specified (N-terminus); printed as DIG NH2 Pen N-Me-R S D T L Pen f NH2, disulfide Pen-Pen; also: DIG linker at N-terminus, number of subunits not shown
notes: as for B1
B5: SEQ ID NO: 82 (peptide)
peptide: Ac-[Pen][NMeR]SDTL[Pen]WQ[dK]-NH2
modifications: disulfide 1-7; not fully specified (residue 10); printed as (Ac Pen N-Me-R S D T L Pen W Q k NH2)2 DIG, disulfide Pen-Pen; also: homodimer: two subunits linked by DIG via D-Lys10 side chain
B6: SEQ ID NO: 110 (peptide)
peptide: Ac-[Pen][NMeR]SDTL[Pen]W[dW][dK]-NH2
modifications: disulfide 1-7; not fully specified (residue 10); printed as (Ac Pen N-Me-R S D T L Pen W w k NH2)2 DIG, disulfide Pen-Pen; also: homodimer: two subunits joined by DIG linker
B7: SEQ ID NO: 95 (peptide)
peptide: Ac-[Pen][NMeR]SDTL[Pen]WPK(DIG)-NH2
modifications: disulfide 1-7; also: homodimer (…)2 DIG: the two subunits are joined through the K10 NZ by the DIG linker
B8: SEQ ID NO: 92 (peptide)
peptide: Ac-[Pen][NMeR]SDTL[Pen]W[dY][dK](DIG)-NH2
modifications: disulfide 1-7; also: homodimer (…)2 DIG: the two subunits are joined through the K10 NZ by the DIG linker
B9: SEQ ID NO: 124 (peptide)
peptide: Ac-[Pen][NMeR]SDTL[Pen]H[dE][dK]-NH2
modifications: disulfide 1-7; not fully specified (residue 10); printed as (Ac Pen N-Me-R S D T L Pen H e k NH2)2 DIG, disulfide Pen-Pen; also: homodimer: two subunits joined by DIG linker
B10: SEQ ID NO: 87 (peptide)
peptide: Ac-[Pen][NMeR]SDTL[Pen]WD[dK]-NH2
modifications: disulfide 1-7; not fully specified (residue 10); printed as (Ac Pen N-Me-R S D T L Pen W D k NH2)2 DIG, disulfide Pen-Pen; also: homodimer: two subunits linked by DIG via D-Lys10 side chain
B11: SEQ ID NO: 85 (peptide)
peptide: Ac-[Pen][NMeR]SDTL[Pen]WF[dK]-NH2
modifications: disulfide 1-7; not fully specified (residue 10); printed as (Ac Pen N-Me-R S D T L Pen W F k NH2)2 DIG, disulfide Pen-Pen; also: homodimer: two subunits linked by DIG via D-Lys10 side chain
B12: SEQ ID NO: 123 (peptide)
peptide: Ac-[Pen][NMeR]SDTL[Pen]Y[dE][dK]-NH2
modifications: disulfide 1-7; not fully specified (residue 10); printed as (Ac Pen N-Me-R S D T L Pen Y e k NH2)2 DIG, disulfide Pen-Pen; also: homodimer: two subunits joined by DIG linker
B13: SEQ ID NO: 186 (peptide)
peptide: Ac-[Pen][NMeR]SDIL[Pen][Phe(4-tBu)][β3hE][dK]-NH2
modifications: disulfide 1-7; not fully specified (residue 10); printed as (Ac Pen N-Me-R S D I L Pen F(4-tBu) b-H-E k NH2)2 IDA, disulfide Pen-Pen; also: homodimer: two subunits joined by IDA linker
B14: SEQ ID NO: 193 (peptide)
peptide: Ac-[Pen][NMeR]SDDL[Pen][Phe(4-tBu)][β3hE][dK]-NH2
modifications: disulfide 1-7; also: homodimer via IDA linker on D-Lys10 side chains, Alexa-647 label
B15: SEQ ID NO: 94 (peptide)
peptide: Ac-[Pen][NMeR]SDTL[Pen]WP[dK](DIG)-NH2
modifications: disulfide 1-7; also: homodimer (…)2 DIG: the two subunits are joined through the K10 NZ by the DIG linker
B16: SEQ ID NO: 105 (peptide)
peptide: Ac-[Pen][NMeR]SDTL[Pen]W[Phe(4-COOH)][dK]-NH2
modifications: disulfide 1-7; not fully specified (residue 10); printed as (Ac Pen N-Me-R S D T L Pen W F(4-COOH) k NH2)2 DIG, disulfide Pen-Pen; also: homodimer: two subunits joined by DIG linker
B17: SEQ ID NO: 83 (peptide)
peptide: Ac-[Pen][NMeR]SDTL[Pen]WN[dK]-NH2
modifications: disulfide 1-7; not fully specified (residue 10); printed as (Ac Pen N-Me-R S D T L Pen W N k NH2)2 DIG, disulfide Pen-Pen; also: homodimer: two subunits linked by DIG via D-Lys10 side chain
B18: SEQ ID NO: 91 (peptide)
peptide: Ac-[Pen][NMeR]SDTL[Pen]W[dF][dK]-NH2
modifications: disulfide 1-7; not fully specified (residue 10); printed as (Ac Pen N-Me-R S D T L Pen W f k NH2)2 DIG, disulfide Pen-Pen; also: homodimer via DIG linker
B19: SEQ ID NO: 104 (peptide)
peptide: Ac-[Pen][NMeR]SDTL[Pen]W[dH][dK]-NH2
modifications: disulfide 1-7; not fully specified (residue 10); printed as (Ac Pen N-Me-R S D T L Pen W h k NH2)2 DIG, disulfide Pen-Pen; also: homodimer: two subunits joined by DIG linker
B20: SEQ ID NO: 5 (peptide)
peptide: Ac-[dK]C[NMeR]SDTLCW[dK]-NH2
modifications: disulfide 2-8 (inferred); not fully specified; printed as DIG (Ac k C N-Me-R S D T L C W k NH2)2 DIG
notes: DIG printed at both ends
B21: SEQ ID NO: 128 (peptide)
peptide: Ac-[Pen][NMeR]SDTL[Pen]WE-OH
modifications: disulfide 1-7
SMILES: CC(=O)N[C@@H]1C(=O)N(C)[C@@H](CCCNC(=N)N)C(=O)N[C@@H](CO)C(=O)N[C@@H](CC(=O)O)C(=O)N[C@@H]([C@@H](C)O)C(=O)N[C@@H](CC(C)C)C(=O)N[C@H](C(=O)N[C@@H](Cc2c[nH]c3ccccc23)C(=O)N[C@@H](CCC(=O)O)C(=O)O)C(C)(C)SSC1(C)C
B22: SEQ ID NO: 77 (peptide)
peptide: XRSDTLXWK
modifications: not fully specified; (Ac Pen N-Me-R S D T L Pen W N-Me-K NH2)2 DIG; disulfide Pen-Pen

target: T1, human α4β7 integrin on cells (human, UniProt P13612 34-1032; P26010 20-798); assay: RPMI8866 cell adhesion to MAdCAM-1
T1 construct: whole, on cells; also called α4β7 cell (Hu); RPMI8866 cells

Row | IC50 | Binder
1 | > 50 nM | B1
2 | > 50 nM | B2
3 | > 500 nM | B3
4 | > 1000 nM | B4
5 | > 100 nM | XRSDTLXW (Ac Pen N-Me-R S D T L Pen W OH; disulfide Pen-Pen) [SEQ ID NO: 127]
6 | > 50 nM | B5
7 | > 10 nM | B6
8 | > 100 nM | B7
9 | > 50 nM | Ac-[Pen][NMeR]SDTL[Pen]W[dP]K-NH2 (disulfide 1-7; also: homodimer, two subunits linked by DIG at Lys10) [SEQ ID NO: 96]
10 | > 50 nM | B8
11 | > 100 nM | B9
12 | > 100 nM | Ac-[Pen][NMeR]SDTQ[Pen][Phe(4-tBu)][β3hE][dK]-NH2 (disulfide 1-7; also: homodimer: two subunits joined by IDA linker) [SEQ ID NO: 187]
13 | ≤ 10 nM | Ac-[Pen][NMeR]SDIL[Pen][Phe(4-tBu)][β3hE][dK]-NH2 (disulfide 1-7; also: homodimer via IDA linker carrying Alexa-647) [SEQ ID NO: 188]
14 | > 25 nM | B10
15 | > 10000 nM | Ac-[Pen][NMeR]SDDL[Pen][Phe(4-tBu)][β3hE][dK]-NH2 (disulfide 1-7; also: homodimer via IDA linker on D-Lys10 side chains) [SEQ ID NO: 191]
16 | ≤ 10 nM | B11
17 | > 50 nM | B12
18 | > 100 nM | B13
19 | > 100000 nM | B14
20 | > 100 nM | B15
21 | > 50 nM | B16
22 | > 50 nM | B17
23 | > 100 nM | B18
24 | > 100 nM | B19
25 | > 50 nM | B20
26 | > 50 nM | B21
27 | > 10 nM | XRSDTLXWK (not fully specified; (Ac Pen N-Me-R S D T L Pen W k OH)2 DIG; disulfide Pen-Pen) [SEQ ID NO: 76]
28 | > 100 nM | B22
